Laboratory results from article PMC5642108.

Assays:
[1] = biological target: T1, AB (HMGB1 without C-terminal tail) (human, UniProt P09429 1-166, C23S;C45S;C106S;S35C); assay: EMSA
FL HMGB1 [2] = biological target: T2, FL HMGB1 (human, UniProt P09429 1-215, C23S;C45S;C106S;E204C); assay: EMSA
Target sequence in this assay (P09429 whole entry C23S/C45S/C106S/E204C): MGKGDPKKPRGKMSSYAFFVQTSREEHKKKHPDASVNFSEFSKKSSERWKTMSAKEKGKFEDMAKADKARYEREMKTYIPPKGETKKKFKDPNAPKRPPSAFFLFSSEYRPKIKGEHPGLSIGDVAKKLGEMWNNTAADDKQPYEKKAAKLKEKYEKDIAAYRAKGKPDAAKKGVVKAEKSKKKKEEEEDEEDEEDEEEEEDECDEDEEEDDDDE

B box = B box (human, UniProt P09429 83-166, C106S;A137C); assay: smFRET
AB-F38A = AB-F38A (human, UniProt P09429 1-166, C23S;F38A;C45S;C106S;S35C); assay: smFRET
[3] = biological target: T1, AB (HMGB1 without C-terminal tail); assay: smFRET
FL HMGB1 [4] = biological target: T2, FL HMGB1; assay: smFRET
A box = biological target: T3, A box (human, UniProt P09429 1-85, C23S;C45S;S35C); assay: smFRET
T3 sequence: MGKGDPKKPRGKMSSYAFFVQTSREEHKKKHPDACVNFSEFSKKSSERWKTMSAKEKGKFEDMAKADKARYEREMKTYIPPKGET

B box, sequence (P09429 83-166 C106S/A137C): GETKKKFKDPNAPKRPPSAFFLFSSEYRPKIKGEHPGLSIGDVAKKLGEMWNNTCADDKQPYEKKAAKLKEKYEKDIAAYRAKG

B1: 18 bp dsDNA (EMSA) (dsDNA)
DNA 1: CAGGCTATAAAAGGGACG
DNA 2: CGTCCCTTTTATAGCCTG
[1]
  Kd: 5 nM
FL HMGB1 [2]
  Kd: 10 nM

B2: smFRET DNA (18 bp with 19 nt 3' overhang) (dsDNA)
DNA 1: CAGGCTATAAAAGGGACG
DNA 2: CGTCCCTTTTATAGCCTGATACAAGCAGCAGTCACCA
B box
  binding result: binds
AB-F38A
  binding result: binds
[3]
  binding result: binds
FL HMGB1 [4]
  binding result: binds
A box
  binding result: binds
